Residue numbers refer to the chain shown, from its start.
Key:
[1] = target: soluble human C3b (human) (UniProt P01024)
human C4b (human) [2] = target: T1, human C4b (human) (UniProt P0C0L5)
T1 sequence: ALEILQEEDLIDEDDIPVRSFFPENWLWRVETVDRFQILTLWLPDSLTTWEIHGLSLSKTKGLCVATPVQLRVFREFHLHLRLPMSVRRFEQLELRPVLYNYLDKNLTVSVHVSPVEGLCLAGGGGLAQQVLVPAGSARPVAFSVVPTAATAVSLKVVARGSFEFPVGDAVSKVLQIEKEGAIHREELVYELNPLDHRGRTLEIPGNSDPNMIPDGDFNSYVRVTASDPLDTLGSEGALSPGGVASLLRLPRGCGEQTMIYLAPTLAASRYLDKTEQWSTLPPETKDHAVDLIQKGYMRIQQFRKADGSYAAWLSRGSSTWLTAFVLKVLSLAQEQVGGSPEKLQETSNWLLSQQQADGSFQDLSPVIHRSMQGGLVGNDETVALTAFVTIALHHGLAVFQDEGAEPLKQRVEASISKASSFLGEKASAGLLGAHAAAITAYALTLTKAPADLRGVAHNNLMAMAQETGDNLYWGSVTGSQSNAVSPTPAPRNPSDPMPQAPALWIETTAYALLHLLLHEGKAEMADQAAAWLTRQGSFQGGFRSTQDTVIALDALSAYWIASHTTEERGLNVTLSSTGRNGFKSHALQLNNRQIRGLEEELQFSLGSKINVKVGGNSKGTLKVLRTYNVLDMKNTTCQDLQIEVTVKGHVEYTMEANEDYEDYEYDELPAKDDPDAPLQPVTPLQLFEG

human C4b (human) [3] = target: T2, human C4b (human) (UniProt P0C0L4)
T2 sequence: T1 sequence with T151A, G317D, L364P, S365C, I368L, H369D, S420N, A451V, R454L, A530S

Row | Substance | C4c EC50 (nM) (human C4b (human) [3]) | C4c EC50 (human C4b (human) [3]) [nM] | further results
1 | CFI-HSA variant Y408L; N531G; E457G; R462K; F464Y (enzyme) | 45.8 | – | iC3b Screen Ref Fold (fold vs CFI-HSA wild type) [1]: 0.84; C4b Screen Ref Fold (fold vs CFI-HSA wild type) (human C4b (human) [2]): 6.16
2 | CFI-HSA variant E457G; P535G; P558S (enzyme) | – | 186 | iC3b Screen Ref Fold (fold of CFI-HSA wild type) [1]: 0.81; C4b Screen Ref Fold (fold of CFI-HSA wild type) (human C4b (human) [2]): 3.18
3 | CFI-HSA variant E487A (enzyme) | – | 104 | iC3b Screen Ref Fold (fold of CFI-HSA wild type) [1]: 1.38; C4b Screen Ref Fold (fold of CFI-HSA wild type) (human C4b (human) [2]): 1.47
4 | CFI-HSA variant S552G; Y553H; V565I (enzyme) | – | 207 | iC3b Screen Ref Fold (fold of CFI-HSA wild type) [1]: 0.37; C4b Screen Ref Fold (fold of CFI-HSA wild type) (human C4b (human) [2]): 2.57
5 | CFI-HSA variant Y20F; E38A; S250A; D425A; Y408L; N531G; E457G; E461Q; R462K; F464Y (enzyme) | 106 | – | iC3b Screen Ref Fold (fold vs CFI-HSA wild type) [1]: 0.77; C4b Screen Ref Fold (fold vs CFI-HSA wild type) (human C4b (human) [2]): 6.31
6 | CFI-HSA variant Y408L; E457G; D425K (enzyme) | – | 102 | iC3b Screen Ref Fold (fold of CFI-HSA wild type) [1]: 1.21; C4b Screen Ref Fold (fold of CFI-HSA wild type) (human C4b (human) [2]): 5.47
7 | CFI-HSA variant E461Q; R462K (enzyme) | – | 95.9 | –
8 | CFI-HSA variant N531G; F464Y (enzyme) | – | 63.5 | –
9 | CFI-HSA variant Y408L; E457G; R462K (enzyme) | – | 142 | –
10 | CFI-HSA variant Y408L; N531G (enzyme) | – | 71.9 | –
11 | CFI-HSA variant Y408L; E457G; F464Y (enzyme) | – | 110 | –
12 | CFI-HSA variant N531G; E457G; R462K; F464Y (enzyme) | – | 33 | –
13 | CFI-HSA variant E457G; R462K; F464Y (enzyme) | – | 84.6 | –
14 | CFI-HSA variant E457G; N531G; E461Q; R462K; F464Y; E530Y; GGSSGG (SEQ ID NO: 6); CR1(ccp15-17) (from UniProt P17927) (enzyme) | 86.7 | – | –
15 | CFI-HSA variant Y408L; N531G; R462K; F464Y (enzyme) | – | 98.2 | –
16 | CFI-HSA variant Y408L; N531G; R462K (enzyme) | – | 126 | –
17 | CFI-HSA variant T407G; N531G (enzyme) | – | 620 | –
18 | CFI-HSA variant E457G; E461Q; R462K (enzyme) | – | 60.2 | –
19 | CFI-HSA variant T407G; E457G (enzyme) | – | 545 | –
20 | CFI-HSA variant Y408L; N531G; P535G; WT; GGSSGG (SEQ ID NO: 6); CR1(ccp15-17) (enzyme) | – | 62.4 | –
21 | CFI-HSA variant Y408L; E457G; E530Y (enzyme) | 26.5 | – | –
22 | CFI-HSA variant Y408L; N531G; E461Q; F464Y (enzyme) | – | 46.7 | –
23 | CFI-HSA variant E457G; N531G; E461Q; R462K; F464Y; GGSSGG (SEQ ID NO: 6); CR1 (ccp1-3) (from UniProt P17927) (enzyme) | > 1000 | – | –
24 | CFI-HSA variant E457G; F464Y (enzyme) | – | 82.3 | –
25 | CFI-HSA variant E457G; R462K (enzyme) | – | 52.7 | –
26 | CFI-HSA variant N531G; R462K; F464Y (enzyme) | – | 54.8 | –

The next lines start with results.

Row | C4c EC50 (nM) (human C4b (human) [3]) | C4c EC50 (human C4b (human) [3]) [nM] | Substance | further results
27 | 79.9 | – | CFI-HSA variant Y408L; N531G; E457G; E461Q; F464Y (enzyme) | iC3b Screen Ref Fold (fold vs CFI-HSA wild type) [1]: 0.51; C4b Screen Ref Fold (fold vs CFI-HSA wild type) (human C4b (human) [2]): 6.12
28 | 94.4 | – | CFI-HSA variant Y408L; N531G; E457G (enzyme) | iC3b Screen Ref Fold (fold vs CFI-HSA wild type) [1]: 0.63; C4b Screen Ref Fold (fold vs CFI-HSA wild type) (human C4b (human) [2]): 6.16
29 | 5.4 | – | CFI-HSA variant E457G; N531G; E416A (enzyme) | iC3b Screen Ref Fold (fold of CFI-HSA wild type) [1]: 2.66; C4b Screen Ref Fold (fold of CFI-HSA wild type) (human C4b (human) [2]): 5.02
30 | – | 78.9 | CFI-HSA variant N531G; P535G; D425K (enzyme) | iC3b Screen Ref Fold (fold of CFI-HSA wild type) [1]: 1.35; C4b Screen Ref Fold (fold of CFI-HSA wild type) (human C4b (human) [2]): 4.53
31 | 60 | – | CFI-HSA variant Y408L; N531G; E457G; E461Q; R462K (enzyme) | iC3b Screen Ref Fold (fold vs CFI-HSA wild type) [1]: 0.64; C4b Screen Ref Fold (fold vs CFI-HSA wild type) (human C4b (human) [2]): 6.07
32 | – | 26.4 | CFI-HSA variant Y408L; E457G; N531G; K534Q (enzyme) | iC3b Screen Ref Fold (fold of CFI-HSA wild type) [1]: 0.54; C4b Screen Ref Fold (fold of CFI-HSA wild type) (human C4b (human) [2]): 5.16
33 | – | 55.2 | CFI-HSA variant E457G; K534Q (enzyme) | iC3b Screen Ref Fold (fold of CFI-HSA wild type) [1]: 1.15; C4b Screen Ref Fold (fold of CFI-HSA wild type) (human C4b (human) [2]): 5.24
34 | 181 | – | CFI-HSA variant Y408L; E457G; D425R; E416A (enzyme) | iC3b Screen Ref Fold (fold of CFI-HSA wild type) [1]: 3.02; C4b Screen Ref Fold (fold of CFI-HSA wild type) (human C4b (human) [2]): 2.03
35 | 65.2 | – | CFI-HSA variant E457G; E461Q-R462K; F464Y (enzyme) | iC3b Screen Ref Fold (fold vs CFI-HSA wild type) [1]: 0.69; C4b Screen Ref Fold (fold vs CFI-HSA wild type) (human C4b (human) [2]): 5.5
36 | 82.1 | – | CFI-HSA variant Y408L; N531G; E457G; E461Q; R462K; F464Y (enzyme) | iC3b Screen Ref Fold (fold vs CFI-HSA wild type) [1]: 0.46; C4b Screen Ref Fold (fold vs CFI-HSA wild type) (human C4b (human) [2]): 5.37
37 | 897 | – | CFI-HSA variant R321A (enzyme) | iC3b Screen Ref Fold (fold vs CFI-HSA wild type) [1]: 0.55; C4b Screen Ref Fold (fold vs CFI-HSA wild type) (human C4b (human) [2]): 0.22
38 | 91 | – | CFI-HSA variant Y408L; E457G; E461Q; R462K; N531G; GGSSGG (SEQ ID NO: 6); CR1 (ccp15-17) (from UniProt P17927) (enzyme) | –
39 | – | > 1000 | CFI-HSA variant F464A (enzyme) | –
40 | – | 159 | CFI-HSA variant E461Q; R462K; F464Y (enzyme) | –
41 | – | > 1000 | CFI-HSA variant F464L (enzyme) | –
42 | 92.9 | – | CFI-HSA variant Y408L; E457G; N531G; D425R; E530Y (enzyme) | –
43 | – | 57.5 | CFI-HSA variant E457G; P535G; WT; GGSSGG (SEQ ID NO: 6); CR1(ccp15-17) (enzyme) | –
44 | – | 36.1 | CFI-HSA variant Y408L; E457G; E461Q (enzyme) | –

Row | C4c EC50 (nM) (human C4b (human) [3]) | C4c EC50 (human C4b (human) [3]) [nM] | Substance | further results
45 | – | 435 | CFI-HSA variant T407G; Y408L (enzyme) | –
46 | – | 40.9 | CFI-HSA variant Y408L; N531G; WT; GGSSGG (SEQ ID NO: 6); CR1(ccp15-17) (enzyme) | –
47 | – | 28.8 | CFI-HSA variant N531G; E461Q; F464Y (enzyme) | –
48 | – | 66.5 | CFI-HSA variant Y408L; N531G; F464Y (enzyme) | –
49 | 38.2 | – | CFI-HSA variant N531G; E530Y (enzyme) | –
50 | – | 329 | CFI-HSA variant T407G (enzyme) | –
51 | 41.2 | – | CFI-HSA variant Y408L; N531G; D425R; E530Y (enzyme) | –
52 | – | 154 | CFI-HSA variant K534M (enzyme) | –
53 | > 1000 | – | CFI-HSA variant Y408L; E530Y (enzyme) | –
54 | – | 156 | CFI-HSA variant Y408L; E457G; R462K; F464Y (enzyme) | –
55 | – | 113 | CFI-HSA variant Y408L; E457G; N531G; WT; GGSSGG (SEQ ID NO: 6); CR1(ccp15-17) (enzyme) | –
56 | – | 58.1 | CFI-HSA variant K14A; D425R; Y408L-N531G (enzyme) | –
57 | – | 24 | CFI-HSA variant N531G; E461Q; R462K; F464Y (enzyme) | –
58 | – | 105 | CFI-HSA variant Y408L; E461Q; F464Y (enzyme) | –
59 | – | 123 | CFI-HSA variant E461Q; F464Y (enzyme) | –
60 | 162 | – | CFI-HSA variant N531G; D425R; E530Y (enzyme) | –
61 | 38.4 | – | CFI-HSA variant E457G; E461Q; F464Y; N531G; GGSSGG (SEQ ID NO: 6); CR1 (ccp15-17) (from UniProt P17927) (enzyme) | –
62 | 76.4 | – | CFI-HSA variant Y408L; E457G; R462K; F464Y; N531G; GGSSGG (SEQ ID NO: 6); CR1 (ccp15-17) (from UniProt P17927) (enzyme) | –
